Reference: article PMC4571342 (Molecular Biology of the Cell, 2015)

Target: the molecule itself
Assay: AUC

B1: C-terminal region (amino acids 104–278) of Lnp1 fused to maltose-binding protein (domain or fragment)
chain: FYNNNRLRKLAKLRAIHQKKLEKLKEETHYNATSSIIQRFSSGEDQNDDAMVLLDDELNAKYQELNNLKTELEKFKKESHVKGLKKEDSDAWFDKIISVLAGGNELDSTSSLSPFKKIICPQCHWKSNCYRLASKPIIFICPHCNHKIDEVKEREDAIEAKQPAQPSQSEKEKTK
- stoichiometry N: 2
